# Source: US20150344570A1 (published 2015)
# Legend:
# [1] = target: T1, FcγRIIIa (human, UniProt P08637 17-208); experiment: SPR (Biacore), antibody captured on antigen-peptide chip, FcγR as analyte; relative binding amount
# T1 construct: extracellular domain; also called FcgRIIIa; CD16A; not shown: His tag attached to the C terminus
# Protocol: Specifically, GpH7-TA7 and GpH7-TA45 (SEQ ID NO: 32) resulting from the introduction of L234Y, G236W, and S298A into GpH7-A5 and GpH7-B3, respectively, were prepared according to the method described in Reference Example 1. […] These antibodies were compared for the FcγRIIIa binding according to the method described in Reference Example 2 (Table 10).
# (§1) Analysis of interaction between objective antibody and the FcγR was carried out using Biacore T100 (GE Healthcare). HBS-EP+ (GE Healthcare) was used as the running buffer, and the measurement temperature was set to 25° C. Chips produced by immobilizing the antigen peptide by the amine coupling method to a Series S Sencor Chip CM5 (GE Healthcare), or alternatively, chips produced by allowing preliminarily biotinylated antigen peptides to interact with and immobilize onto a Series S Sensor Chip SA (certified) (GE Healthcare) were used. Antibodies of interest were captured onto an antigen peptide-immobilized chip, and allowed to interact to each FcγR diluted with running buffer. To regenerate and repeatedly use the chip, the antibodies captured on the chip were washed off by reacting 10 mM glycine-HCl, pH 1.5.
# [2] = target: T1, FcγRIIIa; experiment: as above; remark: listed apart in the source
# Protocol: GpH7-TA8 (SEQ ID NO: 33) and GpH7-B12 (SEQ ID NO: 12) resulting from the introduction of P329R into GpH7-TA7 and GpH7-B3, respectively, were prepared according to the method described in Reference Example 1.
# as §1
# [3] = target: T1, FcγRIIIa; experiment: ratio of SPR KDs: KD of GpH7-G1d/GpL16-k0 divided by KD of this antibody
# Protocol: (§2) The prepared antibodies were compared for the FcγRIIIa-binding activity using, as an indicator, KD for FcγRIIIa that was determined according to the method described in Reference Example 2.
# as §1
# (§3) Specifically, to calculate association rate constant ka (L/mol/s) and dissociation rate constant kd (1/s), sensorgrams obtained by measurement were processed for global fitting by Biacore Evaluation Software using 1:1 Langmuir binding model and dissociation constant KD (mol/1) was calculated from the resulting values.
# [4] = target: T1, FcγRIIIa; experiment: ratio of SPR KDs: KD of GpH7-A5/GpH7-B3/GpL16-k0 divided by KD of this antibody
# Protocol: as §2, §1, §3
# [5] = target: T2, FcγRIIIa extracellular domain with C-terminal His tag (human, UniProt P08637 17-208); experiment: SPR (Biacore), ratio of KD for FcγRIIIa against GpH7-A5/GpH7-B3/GpL16-k0
# T2 construct: extracellular domain; also called FcgRIIIa; 3a; not shown: His tag attached to the C terminus
# T2 sequence (P08637 17-208): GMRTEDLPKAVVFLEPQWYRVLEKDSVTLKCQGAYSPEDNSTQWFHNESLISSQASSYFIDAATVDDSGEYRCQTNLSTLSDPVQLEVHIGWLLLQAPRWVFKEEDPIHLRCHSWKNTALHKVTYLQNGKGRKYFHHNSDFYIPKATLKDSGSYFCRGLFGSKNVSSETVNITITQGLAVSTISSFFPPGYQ
# From the text: Then, the present inventors introduced I332E into only one H chain, and assessed whether the Tm is elevated as compared to when I332E is introduced into both H chains. Expression vectors inserted with GpH7-A44 (SEQ ID NO: 49) and GpH7-B80 (SEQ ID NO: 50) resulting from the introduction of I332E into GpH7-A5 and GpH7-B3, respectively, were constructed. They were combined with GpH7-B3, GpH7-A5, and GpL16-k0 to express and prepare the following antibodies according to the method described in Reference Example 1: the heterodimerized antibodies GpH7-A5/GpH7-B80/GpL16-k0 and GpH7-A44/GpH7-B3/GpL16-k0 in which only one of the H chains was introduced with I332E, and the homodimerized antibody GpH7-A44/GpH7-B80/GpL16-k0 in which both of the H chains were introduced with I332E. […] Each antibody was assessed for the FcγRIIIa-binding activity according to the method described in Reference Example 2. In addition, the antibodies were compared for the Tm of CH2 domain by thermal shift assay according to the method described in Reference Example 5 (Tables 28 and 29).
# as §1
# The FcγR-binding activity of each antibody was assessed primarily using as an indicator the FcγR-binding activity and dissociation constant for FcγR.
# T1 sequence (P08637 17-208): as above
binder,measurement,setting,value
"GpH7-A5/GpH7-B3/GpL16-k0 (antibody, human IgG1, kappa, also called HeCon Ab; control heterodimerized antibody) heavy 1: not shown heavy 2: not shown light: DIVMTQSPLSLPVTPGEPASISCQASESLVHSNRNTYLHWYLQKPGQSPQLLIYKVSNRFSGVPDRFSGSGSGTDFTLKISRVEAEDVGVYYCSQNTHVPPTFGQGTKVEIERTVAAPSVFIFPPSDEQLKSGTASVVCLLNNFYPREAKVQWKVDNALQSGNSQESVTEQDSKDSTYSLSSTLTLSKADYEKHKVYACEVTHQGLSSPVTKSFNRGEC [GpH7-A5/GpH7-B3/GpL16-k0, listing 1 of 2 here]",FcγR BINDING ACTIVITY (relative FcγRIIIa binding),[1],"100 relative, GpH7-A5/GpH7-B3/GpL16-k0 = 100"
same,FcγRIIIa BINDING ACTIVITY (relative),[2],"100 relative, GpH7-A5/GpH7-B3/GpL16-k0 = 100"
same,KD ratio 1,[3],0.75 fold
same,KD ratio 2,[4],1 fold
"GpH7-A5/GpH7-B3/GpL16-k0 (antibody, human IgG1, kappa, also called HeCon Ab; control heterodimerized antibody) heavy 1: not shown heavy 2: not shown light: DIVMTQSPLSLPVTPGEPASISCQASESLVHSNRNTYLHWYLQKPGQSPQLLIYKVSNRFSGVPDRFSGSGSGTDFTLKISRVEAEDVGVYYCSQNTHVPPTFGQGTKVEIERTVAAPSVFIFPPSDEQLKSGTASVVCLLNNFYPREAKVQWKVDNALQSGNSQESVTEQDSKDSTYSLSSTLTLSKADYEKHKVYACEVTHQGLSSPVTKSFNRGEC [GpH7-A5/GpH7-B3/GpL16-k0, listing 2 of 2 here]",KD ratio,[5],1 fold (KD of GpH7-A5/GpH7-B3/GpL16-k0 divided by KD of the antibody)
"GpH7-TA7/GpH7-TA45/GpL16-k0 (antibody, human IgG1, kappa, Anti-glypican-3 IgG1; The two chains differ only in D356K/H435R and K439E) heavy 1: QVQLVQSGAEVKKPGASVTVSCKASGYTFTDYEMHWIRQPPGEGLEWIGAIDPKTGDTAYSESFQDRVTLTADKSTSTAYMELSSLTSEDTAVYYCTRFYSYTYWGQGTLVTVSSASTKGPSVFPLAPSSKSTSGGTAALGCLVKDYFPEPVTVSWNSGALTSGVHTFPAVLQSSGLYSLSSVVTVPSSSLGTQTYICNVNHKPSNTKVDKKVEPKSCDKTHTCPPCPAPEYLWGPSVFLFPPKPKDTLMISRTPEVTCVVVDVSHEDPEVKFNWYVDGVEVHNAKTKPREEQYNATYRVVSVLTVLHQDWLNGKEYKCKVSNKALPAPIEKTISKAKGQPREPQVYTLPPSRKELTKNQVSLTCLVKGFYPSDIAVEWESNGQPENNYKTTPPVLDSDGSFFLYSKLTVDKSRWQQGNVFSCSVMHEALHNRYTQKSLSLSP heavy 2: QVQLVQSGAEVKKPGASVTVSCKASGYTFTDYEMHWIRQPPGEGLEWIGAIDPKTGDTAYSESFQDRVTLTADKSTSTAYMELSSLTSEDTAVYYCTRFYSYTYWGQGTLVTVSSASTKGPSVFPLAPSSKSTSGGTAALGCLVKDYFPEPVTVSWNSGALTSGVHTFPAVLQSSGLYSLSSVVTVPSSSLGTQTYICNVNHKPSNTKVDKKVEPKSCDKTHTCPPCPAPEYLWGPSVFLFPPKPKDTLMISRTPEVTCVVVDVSHEDPEVKFNWYVDGVEVHNAKTKPREEQYNATYRVVSVLTVLHQDWLNGKEYKCKVSNKALPAPIEKTISKAKGQPREPQVYTLPPSRDELTKNQVSLTCLVKGFYPSDIAVEWESNGQPENNYKTTPPVLDSDGSFFLYSKLTVDKSRWQQGNVFSCSVMHEALHNHYTQESLSLSP light: DIVMTQSPLSLPVTPGEPASISCQASESLVHSNRNTYLHWYLQKPGQSPQLLIYKVSNRFSGVPDRFSGSGSGTDFTLKISRVEAEDVGVYYCSQNTHVPPTFGQGTKVEIERTVAAPSVFIFPPSDEQLKSGTASVVCLLNNFYPREAKVQWKVDNALQSGNSQESVTEQDSKDSTYSLSSTLTLSKADYEKHKVYACEVTHQGLSSPVTKSFNRGEC",FcγR BINDING ACTIVITY (relative FcγRIIIa binding),[1],"48 relative, GpH7-A5/GpH7-B3/GpL16-k0 = 100"
same,KD ratio 1,[3],0.37 fold
same,KD ratio 2,[4],0.49 fold
"GpH7-TA7/GpH7-B3/GpL16-k0 (antibody, human IgG1, kappa, Anti-glypican-3 IgG1 heterodimer; L234Y/G236W/S298A in H1 only) heavy 1: QVQLVQSGAEVKKPGASVTVSCKASGYTFTDYEMHWIRQPPGEGLEWIGAIDPKTGDTAYSESFQDRVTLTADKSTSTAYMELSSLTSEDTAVYYCTRFYSYTYWGQGTLVTVSSASTKGPSVFPLAPSSKSTSGGTAALGCLVKDYFPEPVTVSWNSGALTSGVHTFPAVLQSSGLYSLSSVVTVPSSSLGTQTYICNVNHKPSNTKVDKKVEPKSCDKTHTCPPCPAPEYLWGPSVFLFPPKPKDTLMISRTPEVTCVVVDVSHEDPEVKFNWYVDGVEVHNAKTKPREEQYNATYRVVSVLTVLHQDWLNGKEYKCKVSNKALPAPIEKTISKAKGQPREPQVYTLPPSRKELTKNQVSLTCLVKGFYPSDIAVEWESNGQPENNYKTTPPVLDSDGSFFLYSKLTVDKSRWQQGNVFSCSVMHEALHNRYTQKSLSLSP heavy 2: not shown light: DIVMTQSPLSLPVTPGEPASISCQASESLVHSNRNTYLHWYLQKPGQSPQLLIYKVSNRFSGVPDRFSGSGSGTDFTLKISRVEAEDVGVYYCSQNTHVPPTFGQGTKVEIERTVAAPSVFIFPPSDEQLKSGTASVVCLLNNFYPREAKVQWKVDNALQSGNSQESVTEQDSKDSTYSLSSTLTLSKADYEKHKVYACEVTHQGLSSPVTKSFNRGEC",FcγR BINDING ACTIVITY (relative FcγRIIIa binding),[1],"210 relative, GpH7-A5/GpH7-B3/GpL16-k0 = 100"
same,FcγRIIIa BINDING ACTIVITY (relative),[2],"210 relative, GpH7-A5/GpH7-B3/GpL16-k0 = 100"
same,KD ratio 1,[3],3.8 fold
same,KD ratio 2,[4],5.1 fold
"GpH7-A5/GpH7-B80/GpL16-k0 (antibody, human IgG1, kappa, Heterodimerized antibody with I332E in one H chain only) heavy 1: not shown heavy 2: not shown light: DIVMTQSPLSLPVTPGEPASISCQASESLVHSNRNTYLHWYLQKPGQSPQLLIYKVSNRFSGVPDRFSGSGSGTDFTLKISRVEAEDVGVYYCSQNTHVPPTFGQGTKVEIERTVAAPSVFIFPPSDEQLKSGTASVVCLLNNFYPREAKVQWKVDNALQSGNSQESVTEQDSKDSTYSLSSTLTLSKADYEKHKVYACEVTHQGLSSPVTKSFNRGEC",KD ratio,[5],3.4 fold (KD of GpH7-A5/GpH7-B3/GpL16-k0 divided by KD of the antibody)
"GpH7-TA8/GpH7-B3/GpL16-k0 (antibody, human IgG1, kappa, Anti-glypican-3 IgG1 heterodimer; L234Y/G236W/S298A/P329R all in H1) heavy 1: QVQLVQSGAEVKKPGASVTVSCKASGYTFTDYEMHWIRQPPGEGLEWIGAIDPKTGDTAYSESFQDRVTLTADKSTSTAYMELSSLTSEDTAVYYCTRFYSYTYWGQGTLVTVSSASTKGPSVFPLAPSSKSTSGGTAALGCLVKDYFPEPVTVSWNSGALTSGVHTFPAVLQSSGLYSLSSVVTVPSSSLGTQTYICNVNHKPSNTKVDKKVEPKSCDKTHTCPPCPAPEYLWGPSVFLFPPKPKDTLMISRTPEVTCVVVDVSHEDPEVKFNWYVDGVEVHNAKTKPREEQYNATYRVVSVLTVLHQDWLNGKEYKCKVSNKALRAPIEKTISKAKGQPREPQVYTLPPSRKELTKNQVSLTCLVKGFYPSDIAVEWESNGQPENNYKTTPPVLDSDGSFFLYSKLTVDKSRWQQGNVFSCSVMHEALHNRYTQKSLSLSP heavy 2: not shown light: DIVMTQSPLSLPVTPGEPASISCQASESLVHSNRNTYLHWYLQKPGQSPQLLIYKVSNRFSGVPDRFSGSGSGTDFTLKISRVEAEDVGVYYCSQNTHVPPTFGQGTKVEIERTVAAPSVFIFPPSDEQLKSGTASVVCLLNNFYPREAKVQWKVDNALQSGNSQESVTEQDSKDSTYSLSSTLTLSKADYEKHKVYACEVTHQGLSSPVTKSFNRGEC",FcγRIIIa BINDING ACTIVITY (relative),[2],"150 relative, GpH7-A5/GpH7-B3/GpL16-k0 = 100"
"GpH7-TA7/GpH7-B12/GpL16-k0 (antibody, human IgG1, kappa, Anti-glypican-3 IgG1 heterodimer; L234Y/G236W/S298A in H1, P329R in H2) heavy 1: QVQLVQSGAEVKKPGASVTVSCKASGYTFTDYEMHWIRQPPGEGLEWIGAIDPKTGDTAYSESFQDRVTLTADKSTSTAYMELSSLTSEDTAVYYCTRFYSYTYWGQGTLVTVSSASTKGPSVFPLAPSSKSTSGGTAALGCLVKDYFPEPVTVSWNSGALTSGVHTFPAVLQSSGLYSLSSVVTVPSSSLGTQTYICNVNHKPSNTKVDKKVEPKSCDKTHTCPPCPAPEYLWGPSVFLFPPKPKDTLMISRTPEVTCVVVDVSHEDPEVKFNWYVDGVEVHNAKTKPREEQYNATYRVVSVLTVLHQDWLNGKEYKCKVSNKALPAPIEKTISKAKGQPREPQVYTLPPSRKELTKNQVSLTCLVKGFYPSDIAVEWESNGQPENNYKTTPPVLDSDGSFFLYSKLTVDKSRWQQGNVFSCSVMHEALHNRYTQKSLSLSP heavy 2: not shown light: DIVMTQSPLSLPVTPGEPASISCQASESLVHSNRNTYLHWYLQKPGQSPQLLIYKVSNRFSGVPDRFSGSGSGTDFTLKISRVEAEDVGVYYCSQNTHVPPTFGQGTKVEIERTVAAPSVFIFPPSDEQLKSGTASVVCLLNNFYPREAKVQWKVDNALQSGNSQESVTEQDSKDSTYSLSSTLTLSKADYEKHKVYACEVTHQGLSSPVTKSFNRGEC",FcγRIIIa BINDING ACTIVITY (relative),[2],"11 relative, GpH7-A5/GpH7-B3/GpL16-k0 = 100"
